In the supplement of paper PMC10126150 one finds switch fluorescence ratio data, which are given here for 78 sequences.

± gives the standard deviation of the averaged measurements.

This data set has as its system ATP. Description: switch fluorescence ratio, 500 uM ATP over buffer (Cy3 cluster intensity, sum of 5 cycles each) (fold (ratio)); higher = stronger signal-on switching upon ATP binding; sequences stand for … in TCGTCGGCAGCGTCAGATGTGTATAAGAGACAGTTTTTTTTTTTTTTTTTTTTTTTTT…TC. The conditions noted are these: aptamer strand: ATP DNA aptamer (quencher-CACCTGGGGGAGTATTGCGGAGGAAGG + anchor), 100 nM annealed; ATP concentration: 500 uM. The procedure, abridged: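 Cy3-labelled switching-strand clusters on a modified Illumina MiSeq flow-cell were annealed to 100 nM quencher-labelled ATP aptamer, imaged in selection buffer, then imaged after 15 min with 500 uM ATP at 22 °C. Five buffer/ATP cycles ran, with NaOH stripping and re-annealing between them. The fluorescence ratio is summed target-cycle over summed buffer-cycle Cy3 intensity per cluster, averaged per switch-domain sequence. Clusters outside 100-1000 RFU were excluded.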
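Further: ATP exposure 15 min at 22 °C before imaging.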

For the sequence TTCGGGCTAG, the switch fluorescence ratio was 1.013 ± 0.0052.

For TTCGGGGAGG, the switch fluorescence ratio is 1.02 ± 0.019.

For TTCGGGGATT, the switch fluorescence ratio came out at 1.37 ± 0.58.

Turning to TTCGGGGGAC, the switch fluorescence ratio is 1.13 ± 0.14.

Take TTCGGGGGTT: the switch fluorescence ratio came to 1.01 ± 0.051.

On to TTCGGGGTGC, for which the switch fluorescence ratio stood at 2.17 ± 1.6.

TTCGGGGTGT: the switch fluorescence ratio stood at 1.01 ± 0.044.

As for TTCGGGTGGC, the switch fluorescence ratio turned out to be 1.02 ± 0.051.

For the sequence TTCGGGTGTT, the switch fluorescence ratio was 0.9932 ± 0.0029.

On to TTCGGTATGC, for which the switch fluorescence ratio stood at 0.98 ± 0.047.

Consider TTCGGTGGAG, for which the switch fluorescence ratio stood at 0.96 ± 0.081.

Regarding TTCGGTGTTG, the switch fluorescence ratio was 0.969 ± 0.045.

With TTCGTAAGGG, the switch fluorescence ratio is 1.012 ± 0.01.

Take TTCGTACGTA: the switch fluorescence ratio is 1 ± 0.06.

Regarding TTCGTACTTT, the switch fluorescence ratio is 1 ± 0.043.

For the sequence TTCGTAGGGC, the switch fluorescence ratio worked out at 1.01 ± 0.055.

As to TTCGTAGTGA, the switch fluorescence ratio amounted to 1.18 ± 0.025.

Regarding TTCGTATGTT, the switch fluorescence ratio was 1.03 ± 0.05.

Turning to TTCGTATTTT, the switch fluorescence ratio turned out to be 0.992 ± 0.026.

As for TTCGTCAATC, the switch fluorescence ratio came to 2.17 ± 1.3.

For the sequence TTCGTCGCTG, the switch fluorescence ratio turned out to be 0.999 ± 0.037.

As for TTCGTCTACA, the switch fluorescence ratio was 0.98 ± 0.021.

In the case of TTCGTCTGCT, the switch fluorescence ratio came to 1.02 ± 0.024.

Consider TTCGTGCATC, for which the switch fluorescence ratio came to 1.06 ± 0.026.

In the case of TTCGTGGAAT, the switch fluorescence ratio turned out to be 0.977 ± 0.028.

For the sequence TTCGTTATCT, the switch fluorescence ratio was 0.981 ± 0.015.

Take TTCGTTATGG: the switch fluorescence ratio worked out at 1 ± 0.046.

With TTCGTTTGTC, the switch fluorescence ratio came to 1 ± 0.02.

For the sequence TTCGTTTGTG, the switch fluorescence ratio is 0.971 ± 0.027.

On to TTCGTTTGTT, for which the switch fluorescence ratio stood at 1.34 ± 0.56.

For the sequence TTCTAAACGT, the switch fluorescence ratio was found to be 1.06 ± 0.078.

Take TTCTAAATGT: the switch fluorescence ratio is 0.9995 ± 0.0021.

As to TTCTAATGTA, the switch fluorescence ratio is 0.993 ± 0.021.

Turning to TTCTAATTAT, the switch fluorescence ratio was found to be 0.981 ± 0.019.

Consider TTCTAGCCTT, for which the switch fluorescence ratio is 1.043 ± 0.00045.

Take TTCTATATAT: the switch fluorescence ratio was found to be 1.01 ± 0.035.

As to TTCTATCCTA, the switch fluorescence ratio stood at 1.02 ± 0.012.

For the sequence TTCTATGTTT, the switch fluorescence ratio is 0.996 ± 0.0094.

For TTCTATTATA, the switch fluorescence ratio amounted to 0.977 ± 0.018.

For TTCTATTGGT, the switch fluorescence ratio amounted to 0.9828 ± 0.0023.

Turning to TTCTCCCGGG, the switch fluorescence ratio was found to be 1.29 ± 0.068.

Turning to TTCTCGAATT, the switch fluorescence ratio was determined as 1.01 ± 0.039.

As to TTCTCGGATG, the switch fluorescence ratio was determined as 0.995 ± 0.015.

Turning to TTCTCGTCAA, the switch fluorescence ratio came to 5.06 ± 0.96.

Turning to TTCTCGTGGC, the switch fluorescence ratio was 0.96 ± 0.029.

For the sequence TTCTCGTGTG, the switch fluorescence ratio is 0.974 ± 0.035.

For TTCTCTTTTG, the switch fluorescence ratio came out at 0.993 ± 0.031.

In the case of TTCTGACGG, the switch fluorescence ratio came out at 1.48 ± 0.55.

For TTCTGAGGAT, the switch fluorescence ratio was 0.989 ± 0.042.

With TTCTGAGGTA, the switch fluorescence ratio is 1.01 ± 0.03.

Take TTCTGCTGCT: the switch fluorescence ratio was 1.02 ± 0.02.

For the sequence TTCTGCTTTC, the switch fluorescence ratio is 1.11 ± 0.03.

Consider TTCTGGGAAA, for which the switch fluorescence ratio turned out to be 0.9997 ± 0.0057.

Take TTCTGGTGAT: the switch fluorescence ratio worked out at 0.999 ± 0.021.

Consider TTCTGTCTGG, for which the switch fluorescence ratio was 0.994 ± 0.021.

TTCTGTCTGT: the switch fluorescence ratio was 1.05 ± 0.052.

On to TTCTGTGCGG, for which the switch fluorescence ratio worked out at 0.978 ± 0.029.

Take TTCTGTTAGC: the switch fluorescence ratio was determined as 1.03 ± 0.043.

For TTCTGTTCTG, the switch fluorescence ratio is 1.01 ± 0.039.

In the case of TTCTGTTGGG, the switch fluorescence ratio was 0.984 ± 0.013.

Turning to TTCTGTTTTG, the switch fluorescence ratio is 1.01 ± 0.029.

Regarding TTCTTAAACA, the switch fluorescence ratio was determined as 1.02 ± 0.013.

Take TTCTTAAATT: the switch fluorescence ratio stood at 0.981 ± 0.019.

On to TTCTTAATTT, for which the switch fluorescence ratio amounted to 1 ± 0.025.

Take TTCTTATAGA: the switch fluorescence ratio was determined as 1.0069 ± 1.4e-05.

For TTCTTCATTT, the switch fluorescence ratio worked out at 1.22 ± 0.26.

With TTCTTGGTCT, the switch fluorescence ratio came out at 1.009 ± 0.0067.

In the case of TTCTTGGTG, the switch fluorescence ratio worked out at 1.02 ± 0.072.

In the case of TTCTTGTGTT, the switch fluorescence ratio is 0.993 ± 0.042.

Take TTCTTTACAC: the switch fluorescence ratio is 1.039 ± 0.0025.

Regarding TTCTTTAGAG, the switch fluorescence ratio stood at 0.987 ± 0.055.

For TTCTTTCCGT, the switch fluorescence ratio is 1.06 ± 0.026.

In the case of TTCTTTCGAG, the switch fluorescence ratio came out at 1.026 ± 0.0045.

As to TTCTTTCTGT, the switch fluorescence ratio came out at 0.998 ± 0.0026.

As to TTCTTTGACG, the switch fluorescence ratio was 1.09 ± 0.077.

Regarding TTCTTTGAGA, the switch fluorescence ratio came to 1.006 ± 0.0062.

As for TTCTTTGGCA, the switch fluorescence ratio is 1.052 ± 0.0061.

As to TTCTTTTCGT, the switch fluorescence ratio was 0.979 ± 0.041.
